Results reported in US20210130436A1 (published 2021).
Changes are numbered by the printed parent chain. Names may count otherwise.

B1: variant CD80 IgV-Fc E24D/E35D/M47L/V68M/E95V/L97Q (Fc fusion, not shown: small tags and cut ends; a dimerising Fc or GST)
chain: VIHVTKEVKEVATLSCGHNVSVEDLAQTRIYWQKDKKMVLTMMSGDLNIWPEYKNRTIFDITNNLSIMILALRPSDEGTYECVVLKYEKDAFKRVHQAEVTLSVKAD
B2: variant CD80 IgV-Fc Q27L/Q33L/E35D/T41S/M47V/N48K/V68M/L85M (Fc fusion, not shown: small tags and cut ends; a dimerising Fc or GST)
chain: B1 chain with D24E, Q27L, Q33L, T41S, L47V, N48K, L85M, V95E, Q97L
B3: variant CD80 IgV-Fc E35D/D46E/M47L/V68M/T79M/L85M/L97Q (Fc fusion, not shown: small tags and cut ends; a dimerising Fc or GST)
chain: B1 chain with D24E, D46E, T79M, L85M, V95E
B4: variant CD80 IgV-Fc Q33R/E35D/M38I/M47L/V68M (Fc fusion, not shown: small tags and cut ends; a dimerising Fc or GST)
chain: B1 chain with D24E, Q33R, M38I, V95E, Q97L
B5: variant CD80 IgV-Fc E35D/M47L/V68M/E95V/L97Q (Fc fusion, not shown: small tags and cut ends; a dimerising Fc or GST)
chain: B1 chain with D24E
B6: CD80 E35D/M47V/N48K/V68M/K89N IgV-Fc, GS(G4S)5 linker (Fc fusion, not shown: a dimerising Fc or GST)
chain: VIHVTKEVKEVATLSCGHNVSVEELAQTRIYWQKDKKMVLTMMSGDVKIWPEYKNRTIFDITNNLSIMILALRPSDEGTYECVVLKYENDAFKREHLAEVTLSVKADGSGGGGSGGGGSGGGGSGGGGSGGGGS
B7: variant CD80 IgV-Fc Q33L/E35D/M43V/M47I/A71G (Fc fusion, not shown: a dimerising Fc or GST)
chain: B1 chain with D24E, Q33L, M43V, L47I, M68V, A71G, V95E, Q97L
B8: variant CD80 IgV-Fc E35D/D46E/M47V/L97Q (Fc fusion, not shown: a dimerising Fc or GST)
chain: B1 chain with D24E, D46E, L47V, M68V, V95E
B9: variant CD80 IgV-Fc Q33L/E35D/M43I/L85Q/R94W (Fc fusion, not shown: a dimerising Fc or GST)
chain: B1 chain with D24E, Q33L, M43I, L47M, M68V, L85Q, R94W, V95E, Q97L
B10: variant CD80 IgV-Fc E35D/M47V/T62A/A71G/V83A/Y87H/L97M (Fc fusion, not shown: a dimerising Fc or GST)
chain: B1 chain with D24E, L47V, T62A, M68V, A71G, V83A, Y87H, V95E, Q97M
B11: variant CD80 IgV-Fc Q33L/E35D/N48K/L85Q/L97Q (Fc fusion, not shown: a dimerising Fc or GST)
chain: B1 chain with D24E, Q33L, L47M, N48K, M68V, L85Q, V95E
B12: variant CD80 IgV-Fc H18Y/Y31H/E35D/M47V/A71G/L85Q (Fc fusion, not shown: a dimerising Fc or GST)
chain: B1 chain with H18Y, D24E, Y31H, L47V, M68V, A71G, L85Q, V95E, Q97L
B13: variant CD80 IgV-Fc Q33L/E35D/M47L/V68M/L85Q/E88D (Fc fusion, not shown: a dimerising Fc or GST)
chain: B1 chain with D24E, Q33L, L85Q, E88D, V95E, Q97L
B14: variant CD80 IgV-Fc H18Y/E35D/V68M/L97Q (Fc fusion, not shown: a dimerising Fc or GST)
chain: B1 chain with H18Y, D24E, L47M, V95E
B15: variant CD80 IgV-Fc E35D/M47V/A71G/L85M/L97Q (Fc fusion, not shown: a dimerising Fc or GST)
chain: B1 chain with D24E, L47V, M68V, A71G, L85M, V95E
B16: variant CD80 IgV-Fc Q33L/E35D/M47L/A71G/F92S (Fc fusion, not shown: a dimerising Fc or GST)
chain: B1 chain with D24E, Q33L, M68V, A71G, F92S, V95E, Q97L
B17: variant CD80 IgV-Fc V22A/E35D/V68E/A71D (Fc fusion, not shown: a dimerising Fc or GST)
chain: B1 chain with V22A, D24E, L47M, M68E, A71D, V95E, Q97L
notes: The molecule is an Fc fusion, which the general text describes as a dimer
B18: variant CD80 IgV-Fc E35D/M47L/A71G/L97Q (Fc fusion, not shown: a dimerising Fc or GST)
chain: B1 chain with D24E, M68V, A71G, V95E

biological target: T1, human CTLA4 (huCTLA4), full-length, stably expressed on CHO cells (human, UniProt P16410 36-223); assay: flow cytometry, CHO cells expressing huCTLA4
T1 construct: whole, on cells
T1 sequence (P16410 36-223): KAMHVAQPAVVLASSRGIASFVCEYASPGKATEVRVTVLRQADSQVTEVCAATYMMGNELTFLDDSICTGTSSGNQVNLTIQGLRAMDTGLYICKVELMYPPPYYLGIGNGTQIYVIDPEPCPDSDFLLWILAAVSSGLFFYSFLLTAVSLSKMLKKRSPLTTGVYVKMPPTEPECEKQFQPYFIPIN

Row | Binder | MFI at 33.3 nM
1 | B1 | 15500 MFI
2 | B2 | 178 MFI
3 | B3 | 96 MFI
4 | B4 | 107 MFI
5 | B5 | 15000 MFI

biological target: T2, human PD-L1 (huPD-L1), full-length, stably expressed on CHO cells (human, UniProt Q9NZQ7 19-290); assay: flow cytometry, CHO cells expressing huPD-L1
T2 construct: whole, on cells
T2 sequence (Q9NZQ7 19-290): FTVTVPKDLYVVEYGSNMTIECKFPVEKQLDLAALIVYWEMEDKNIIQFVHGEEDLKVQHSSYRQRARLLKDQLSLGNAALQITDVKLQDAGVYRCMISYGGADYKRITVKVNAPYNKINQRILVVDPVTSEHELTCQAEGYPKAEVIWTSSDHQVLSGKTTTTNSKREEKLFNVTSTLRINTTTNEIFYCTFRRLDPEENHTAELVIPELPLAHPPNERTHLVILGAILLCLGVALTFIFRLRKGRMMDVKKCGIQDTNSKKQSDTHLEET

Row | Binder | MFI at 33.3 nM
6 | B1 | 18600 MFI
7 | B2 | 16500 MFI
8 | B3 | 4620 MFI
9 | B4 | 16500 MFI
10 | B5 | 18600 MFI

biological target: T3, human PD-L1 (human, UniProt Q9NZQ7 19-290); assay: flow cytometry on CHO cells stably expressing PD-L1
T3 construct: also called huPD-L1; CD274
T3 sequence (Q9NZQ7 19-290): as above

Row | Binder | MFI at 33.3 nM
11 | B6 | 22700 MFI

biological target: T4, human PD-L1 (CD274), full-length, expressed on the surface of CHO cells (human, UniProt Q9NZQ7 19-290); assay: flow cytometry on PD-L1 CHO cells; MFI against WT CD80 ECD-Fc (R&D)
T4 construct: also called huPD-L1; B7-H1
T4 sequence (Q9NZQ7 19-290): as above

Row | Binder | Fold change to WT
12 | B7 | 9.82 fold
13 | B8 | 2.45 fold
14 | B9 | 3.65 fold
15 | B10 | 9.76 fold
16 | B11 | 5.69 fold
17 | B12 | 9.61 fold
18 | B13 | 15.8 fold
19 | B14 | 15.3 fold
20 | B15 | 7.77 fold
21 | B16 | 3.53 fold
22 | B17 | 0.17 fold

biological target: T5, human CTLA-4 (CTLA4), full-length, expressed on the surface of CHO cells (human, UniProt P16410 36-223); assay: flow cytometry on CTLA-4 CHO cells; MFI against WT CD80 ECD-Fc (R&D)
T5 construct: also called huCTLA4
T5 sequence (P16410 36-223): as the sequence (P16410 36-223) above

Row | Binder | Fold change to WT CD80
23 | B7 | 0.08 fold
24 | B8 | 1.71 fold
25 | B9 | 0.01 fold
26 | B10 | 0.1 fold
27 | B11 | 0.01 fold
28 | B12 | 0.02 fold
29 | B13 | 0.02 fold
30 | B14 | 0.97 fold
31 | B15 | 1.34 fold
32 | B16 | 0.01 fold
33 | B17 | 2.45 fold

biological target: T4, human PD-L1 (CD274), full-length, …; assay: flow cytometry; MFI on PD-L1 CHO cells over MFI on Jurkat cells (CD28)

Row | Binder | Ratio of PDL1:CD28
34 | B7 | 275 ratio
35 | B8 | 52 ratio
36 | B9 | 107 ratio
37 | B10 | 255 ratio
38 | B11 | 162 ratio
39 | B12 | 285 ratio
40 | B13 | 476 ratio
41 | B14 | 407 ratio
42 | B15 | 182 ratio
43 | B16 | 77 ratio
44 | B17 | 0 ratio

biological target: T2, human PD-L1 (huPD-L1), full-length, …; assay: as above

Row | Binder | Ratio of PDL1:CD28
45 | B1 | 1270 ratio
46 | B2 | 1130 ratio
47 | B3 | 325 ratio
48 | B4 | 1110 ratio
49 | B5 | 1300 ratio

biological target: T6, human CD28, endogenously expressed on Jurkat/IL2 reporter cells (human, UniProt P10747 19-220); assay: flow cytometry on Jurkat cells (CD28); MFI against WT CD80 ECD-Fc (R&D)
T6 construct: This is the endogenous CD28 of Jurkat cells

Row | Binder | Fold change to WT
50 | B7 | 0.04 fold
51 | B8 | 0.05 fold
52 | B9 | 0.04 fold
53 | B10 | 0.04 fold
54 | B11 | 0.04 fold
55 | B12 | 0.04 fold
56 | B13 | 0.03 fold
57 | B14 | 0.04 fold
58 | B15 | 0.04 fold
59 | B16 | 0.05 fold
60 | B17 | 1.83 fold

biological target: T1, human CTLA4 (huCTLA4), full-length, …; assay: flow cytometry, CHO cells expressing huCTLA4; MFI against WT CD80 of the table

Row | Binder | Fold change to WT CD80
61 | B1 | 8.8 fold
62 | B2 | 0.1 fold
63 | B3 | 0.1 fold
64 | B4 | 0.1 fold
65 | B5 | 8.5 fold

biological target: T2, human PD-L1 (huPD-L1), full-length, …; assay: flow cytometry, CHO cells expressing huPD-L1; MFI against WT CD80 of the table

Row | Binder | Fold change to WT CD80
66 | B1 | 362 fold
67 | B2 | 320 fold
68 | B3 | 89.7 fold
69 | B4 | 320 fold
70 | B5 | 361 fold

biological target: T4, human PD-L1 (CD274), full-length, …; assay: flow cytometry, CHO cells stably expressing human PD-L1, 33.3 nM Fc fusion, PE anti-human Fc

Row | Binder | MFI at 33.3 nM
71 | B7 | 78000 MFI
72 | B8 | 19500 MFI
73 | B9 | 29000 MFI
74 | B10 | 77500 MFI
75 | B11 | 45200 MFI
76 | B12 | 76400 MFI
77 | B13 | 126000 MFI
78 | B14 | 122000 MFI
79 | B15 | 61700 MFI
80 | B16 | 28000 MFI
81 | B17 | 1350 MFI

biological target: T5, human CTLA-4 (CTLA4), full-length, …; assay: flow cytometry, CHO cells stably expressing human CTLA-4, 33.3 nM Fc fusion, PE anti-human Fc

Row | Binder | MFI at 33.3 nM
82 | B18 | 226000 MFI
83 | B7 | 14000 MFI
84 | B8 | 305000 MFI
85 | B9 | 1080 MFI
86 | B10 | 18100 MFI
87 | B11 | 1180 MFI
88 | B12 | 3840 MFI
89 | B13 | 3530 MFI
90 | B14 | 173000 MFI
91 | B15 | 239000 MFI
92 | B16 | 2110 MFI
93 | B17 | 437000 MFI

biological target: T6, human CD28, endogenously expressed on …; assay: flow cytometry, Jurkat/IL2 reporter cells (endogenous CD28), 33.3 nM Fc fusion, PE anti-human Fc

Row | Binder | MFI at 33.3 nM
94 | B18 | 300 MFI
95 | B7 | 284 MFI
96 | B8 | 371 MFI
97 | B9 | 272 MFI
98 | B10 | 305 MFI
99 | B11 | 279 MFI
100 | B12 | 268 MFI
101 | B13 | 264 MFI
102 | B14 | 299 MFI
103 | B15 | 339 MFI
104 | B16 | 366 MFI
105 | B17 | 14000 MFI
